{"source": "the supplement of paper PMC9112550", "about": "“Optimization of the antimicrobial peptide Bac7 by deep mutational scanning” (BMC Biology, 2022);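 also: peptides expressed intracellularly from a pBAD plasmid library in pooled LB shake-flask culture, induced with 0.3% L-arabinose, DNA abundance read by NGS, three biological replicates, DESeq2 with apeglm shrinkage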"}
{"tested_on": "Escherichia coli TOP10", "assay": "shrunken log2 fold change of peptide-encoding DNA abundance (4.5 h post-induction vs induction); higher = less antimicrobial activity (less host growth inhibition)", "conditions": "time post-induction: 4.5 h; library: site-saturation at positions 5, 18, 19, 20"}
{"sequence": "RRIRVRPPRLPRPRPRPTPIPRP", "shrunken log2 fold change": 0.186}
{"sequence": "RRIRIRPPRLPRPRPRPDYGPRP", "shrunken log2 fold change": -0.117}
{"sequence": "RRIRCRPPRLPRPRPRPYCMPRP", "shrunken log2 fold change": -1.09}
{"sequence": "RRIRIRPPRLPRPRPRPWTTPRP", "shrunken log2 fold change": -0.102}
{"sequence": "RRIRLRPPRLPRPRPRPSMVPRP", "shrunken log2 fold change": -0.665}
{"sequence": "RRIRNRPPRLPRPRPRPYQSPRP", "shrunken log2 fold change": -0.00256}
{"sequence": "RRIRVRPPRLPRPRPRPALVPRP", "shrunken log2 fold change": 0.464}
{"sequence": "RRIRVRPPRLPRPRPRPSCLPRP", "shrunken log2 fold change": -0.618}
{"sequence": "RRIRFRPPRLPRPRPRPNTSPRP", "shrunken log2 fold change": -0.307}
{"sequence": "RRIRVRPPRLPRPRPRPMREPRP", "shrunken log2 fold change": 0.689}
{"sequence": "RRIRIRPPRLPRPRPRPFRSPRP", "shrunken log2 fold change": -0.221}
{"sequence": "RRIRFRPPRLPRPRPRPEFIPRP", "shrunken log2 fold change": -0.523}
{"sequence": "RRIRQRPPRLPRPRPRPENCPRP", "shrunken log2 fold change": -0.219}
{"sequence": "RRIRRRPPRLPRPRPRPKLDPRP", "shrunken log2 fold change": 0.523}
{"sequence": "RRIRHRPPRLPRPRPRPNLRPRP", "shrunken log2 fold change": 0.00562}
{"sequence": "RRIRIRPPRLPRPRPRPMVVPRP", "shrunken log2 fold change": -0.0948}
{"sequence": "RRIRTRPPRLPRPRPRPYFDPRP", "shrunken log2 fold change": -0.738}
{"sequence": "RRIRWRPPRLPRPRPRPHNQPRP", "shrunken log2 fold change": -0.445}
{"sequence": "RRIRYRPPRLPRPRPRPWIKPRP", "shrunken log2 fold change": 0.106}
{"sequence": "RRIRHRPPRLPRPRPRPRDQPRP", "shrunken log2 fold change": -0.0907}
{"sequence": "RRIRIRPPRLPRPRPRPTFYPRP", "shrunken log2 fold change": -0.462}
{"sequence": "RRIRHRPPRLPRPRPRPFHEPRP", "shrunken log2 fold change": -0.2}
{"sequence": "RRIRDRPPRLPRPRPRPWWPPRP", "shrunken log2 fold change": 0.0881}
{"sequence": "RRIRIRPPRLPRPRPRPNLRPRP", "shrunken log2 fold change": -0.117}
{"sequence": "RRIRLRPPRLPRPRPRPYAVPRP", "shrunken log2 fold change": 0.00157}
{"sequence": "RRIRKRPPRLPRPRPRPESKPRP", "shrunken log2 fold change": 0.727}
{"sequence": "RRIRQRPPRLPRPRPRPCKGPRP", "shrunken log2 fold change": 0.00408}
{"sequence": "RRIRDRPPRLPRPRPRPARTPRP", "shrunken log2 fold change": 0.364}
{"sequence": "RRIRVRPPRLPRPRPRPLLFPRP", "shrunken log2 fold change": -0.141}
{"sequence": "RRIRCRPPRLPRPRPRPEIIPRP", "shrunken log2 fold change": -0.363}
{"sequence": "RRIRARPPRLPRPRPRPTCPPRP", "shrunken log2 fold change": 0.444}
{"sequence": "RRIRWRPPRLPRPRPRPWMGPRP", "shrunken log2 fold change": 0.0275}
{"sequence": "RRIRGRPPRLPRPRPRPGNEPRP", "shrunken log2 fold change": 0.0696}
{"sequence": "RRIRNRPPRLPRPRPRPLHRPRP", "shrunken log2 fold change": -0.249}
{"sequence": "RRIRKRPPRLPRPRPRPFNQPRP", "shrunken log2 fold change": -0.0503}
{"sequence": "RRIRWRPPRLPRPRPRPFRQPRP", "shrunken log2 fold change": -0.0956}
{"sequence": "RRIRHRPPRLPRPRPRPFTCPRP", "shrunken log2 fold change": -0.231}
{"sequence": "RRIRARPPRLPRPRPRPQFPPRP", "shrunken log2 fold change": 0.0321}
{"sequence": "RRIRFRPPRLPRPRPRPFRSPRP", "shrunken log2 fold change": -0.0534}
{"sequence": "RRIRGRPPRLPRPRPRPQENPRP", "shrunken log2 fold change": 0.462}
{"sequence": "RRIRCRPPRLPRPRPRPDNTPRP", "shrunken log2 fold change": 0.881}
{"sequence": "RRIRWRPPRLPRPRPRPKWHPRP", "shrunken log2 fold change": 0.184}
{"sequence": "RRIRVRPPRLPRPRPRPNIFPRP", "shrunken log2 fold change": -0.234}
{"sequence": "RRIRFRPPRLPRPRPRPYACPRP", "shrunken log2 fold change": 0.0338}
{"sequence": "RRIRPRPPRLPRPRPRPASGPRP", "shrunken log2 fold change": 0.194}
{"sequence": "RRIRCRPPRLPRPRPRPMWHPRP", "shrunken log2 fold change": -0.147}
{"sequence": "RRIRWRPPRLPRPRPRPLRAPRP", "shrunken log2 fold change": 1.19}
{"sequence": "RRIRERPPRLPRPRPRPTDIPRP", "shrunken log2 fold change": -0.0479}
{"sequence": "RRIRVRPPRLPRPRPRPDKVPRP", "shrunken log2 fold change": -0.332}
{"sequence": "RRIRDRPPRLPRPRPRPPTQPRP", "shrunken log2 fold change": 0.285}
{"sequence": "RRIRRRPPRLPRPRPRPIFSPRP", "shrunken log2 fold change": 1.06}
{"sequence": "RRIRHRPPRLPRPRPRPCLIPRP", "shrunken log2 fold change": -0.11}
{"sequence": "RRIRTRPPRLPRPRPRPRDCPRP", "shrunken log2 fold change": 0.057}
{"sequence": "RRIRRRPPRLPRPRPRPMIEPRP", "shrunken log2 fold change": 0.177}
{"sequence": "RRIRLRPPRLPRPRPRPKCYPRP", "shrunken log2 fold change": -0.414}
{"sequence": "RRIRPRPPRLPRPRPRPDNWPRP", "shrunken log2 fold change": -0.121}
{"sequence": "RRIRTRPPRLPRPRPRPLGEPRP", "shrunken log2 fold change": 0.0248}
{"sequence": "RRIRYRPPRLPRPRPRPQCQPRP", "shrunken log2 fold change": -0.00208}
{"sequence": "RRIRVRPPRLPRPRPRPPLIPRP", "shrunken log2 fold change": 1.02}
{"sequence": "RRIRQRPPRLPRPRPRPDQVPRP", "shrunken log2 fold change": -0.00133}
